Three molecules from US20070231899A1 (published 2007) can be followed below.

For assay [1], the target named is plasmin (Homo sapiens (Human)) (UniProt P00747). Briefly: surface plasmon resonance, phospholipid-associated AIIt; AIIt with plasmin. In general terms: In SPR one partner is held on a chip, and binding of the other changes the refractive index at the surface.
Assay [2] addresses tissue-type plasminogen activator (t-PA) (UniProt P00750). Briefly: surface plasmon resonance, phospholipid-associated AIIt; AIIt with t-PA.
Assay [3] addresses [Glu]-plasminogen (human) (UniProt P00747). Briefly: surface plasmon resonance, phospholipid-associated AIIt; AIIt with plasminogen.
Assay [4] concerns the target plasmin (Homo sapiens (Human)) (UniProt P00747). Briefly: surface plasmon resonance, phospholipid-associated annexin A2; phospholipid-associated annexin A2 with plasmin.
Assay [5] deals with T1, Annexin II heterotetramer (AIIt) purified from bovine lung (bovine, UniProt P04272 2-339; P60902 2-97).
T1 construct: also called annexin II tetramer
Briefly: iodinated A61 (0.008-5 µM) on AIIt bound to phospholipid-coated wells, gamma counting. The source says:
Binding of A₆₁ to AIIt—The purified A₆₁ was iodinated according to manufacturer's procedures. Iodinated A₆₁ retained biological activity as determined by the endothelial cell proliferation assay (Kassam et al., 2001). 96-well Immulon-1 Removawell strips (Dynex Technologies) were coated with phospholipid mixture containing 3:1 ratio of phosphatidylserine to phosphatidylcholine and air-dried. The coated strips were blocked with 1% fatty acid-free bovine serum albumin (BSA) in a buffer containing 20 mM Hepes (pH 7.4), 140 mM NaCl, and 2 mM CaCl₂ (buffer A) at room temperature for 2 h. The strips were washed with buffer A and incubated with 1 μM AIIt in buffer A at room temperature for 4 h. The strips were then washed and incubated with 0.008-5 μM iodinated A₆₁ with or without 30-fold molar excess of cold A₆₁ or BSA at 4° C. After overnight incubation, the strips were washed five times with PBS, and individual wells were detached and measured for radioactivity with a γ-counter. The data shown (n=6) are the average of two separate experiments.

tissue-type plasminogen activator (t-PA), sequence (P00750 36-562 limits assumed): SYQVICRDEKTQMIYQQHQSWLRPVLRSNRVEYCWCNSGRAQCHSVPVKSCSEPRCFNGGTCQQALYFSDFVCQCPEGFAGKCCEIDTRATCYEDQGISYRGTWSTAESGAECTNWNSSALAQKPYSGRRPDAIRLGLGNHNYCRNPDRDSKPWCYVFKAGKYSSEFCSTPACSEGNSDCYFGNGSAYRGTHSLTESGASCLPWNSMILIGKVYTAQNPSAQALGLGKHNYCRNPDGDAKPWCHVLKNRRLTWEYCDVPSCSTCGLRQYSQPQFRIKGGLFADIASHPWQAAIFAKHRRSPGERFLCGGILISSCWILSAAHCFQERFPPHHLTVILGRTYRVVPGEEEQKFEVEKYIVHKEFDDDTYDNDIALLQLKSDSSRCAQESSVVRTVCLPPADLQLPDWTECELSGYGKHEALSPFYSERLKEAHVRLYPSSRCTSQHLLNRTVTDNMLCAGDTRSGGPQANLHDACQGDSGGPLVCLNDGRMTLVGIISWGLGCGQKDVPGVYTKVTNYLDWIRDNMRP
T1 sequence (P04272 2-339 limits assumed, chain 1 of 2): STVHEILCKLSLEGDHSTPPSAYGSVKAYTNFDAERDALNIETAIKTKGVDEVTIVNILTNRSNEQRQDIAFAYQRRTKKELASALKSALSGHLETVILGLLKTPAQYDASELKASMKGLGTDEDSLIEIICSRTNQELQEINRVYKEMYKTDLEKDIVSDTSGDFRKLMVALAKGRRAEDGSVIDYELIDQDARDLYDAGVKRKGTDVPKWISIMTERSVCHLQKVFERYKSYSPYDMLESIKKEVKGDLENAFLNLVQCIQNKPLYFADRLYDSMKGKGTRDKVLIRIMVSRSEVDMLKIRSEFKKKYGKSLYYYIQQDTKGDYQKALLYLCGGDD
T1 sequence (P60902 2-97 limits assumed, chain 2 of 2): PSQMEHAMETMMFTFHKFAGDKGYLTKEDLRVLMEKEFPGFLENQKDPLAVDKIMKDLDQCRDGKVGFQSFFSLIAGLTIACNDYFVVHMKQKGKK
[Glu]-plasminogen (human), sequence (P00747 20-810 limits assumed): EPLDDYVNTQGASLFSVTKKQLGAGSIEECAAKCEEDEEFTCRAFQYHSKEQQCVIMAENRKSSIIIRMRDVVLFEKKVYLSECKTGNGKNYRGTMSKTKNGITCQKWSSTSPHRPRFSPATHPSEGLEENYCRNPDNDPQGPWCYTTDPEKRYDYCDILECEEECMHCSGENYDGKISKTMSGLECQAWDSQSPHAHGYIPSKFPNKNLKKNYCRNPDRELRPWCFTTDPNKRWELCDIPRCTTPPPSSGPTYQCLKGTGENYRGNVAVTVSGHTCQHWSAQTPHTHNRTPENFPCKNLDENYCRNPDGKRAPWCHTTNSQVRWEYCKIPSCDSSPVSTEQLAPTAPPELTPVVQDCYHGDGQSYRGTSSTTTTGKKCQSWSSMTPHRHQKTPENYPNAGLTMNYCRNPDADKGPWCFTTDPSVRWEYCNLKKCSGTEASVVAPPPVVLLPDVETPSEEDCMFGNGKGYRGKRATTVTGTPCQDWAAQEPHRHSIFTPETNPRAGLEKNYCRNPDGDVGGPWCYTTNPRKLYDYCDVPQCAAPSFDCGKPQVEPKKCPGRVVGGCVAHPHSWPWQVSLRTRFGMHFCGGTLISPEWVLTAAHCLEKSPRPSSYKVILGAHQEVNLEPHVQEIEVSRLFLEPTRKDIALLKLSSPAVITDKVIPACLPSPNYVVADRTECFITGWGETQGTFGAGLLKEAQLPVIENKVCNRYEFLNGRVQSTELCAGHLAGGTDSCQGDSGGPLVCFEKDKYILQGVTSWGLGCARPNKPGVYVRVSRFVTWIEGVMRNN

One may read the Kd as the concentration at which binding is half-saturated. As for “Annexin II heterotetramer (AIIt), phospholipid-associated, as used in the surface plasmon resonance study of Example 12 (from UniProt P07355 2-339)”, the Kd in assay [1] amounted to 750 nM; in assay [2], 680 nM; in assay [3], 110 nM.

Take “Annexin A2 (p36), phospholipid-associated (from UniProt P07355 2-339)”: the Kd in assay [4] was 780 nM.

B1: A61 antiangiogenic plasminogen fragment (Lys78-Lys468 of plasminogen) (other)
chain: KVYLSECKTGNGKNYRGTMSKTKNGITCQKWSSTSPHRPRFSPATHPSEGLEENYCRNPDNDPQGPWCYTTDPEKRYDYCDILECEEECMHCSGENYDGKISKTMSGLECQAWDSQSPHAHGYIPSKFPNKNLKKNYCRNPDRELRPWCFTTDPNKRWELCDIPRCTTPPPSSGPTYQCLKGTGENYRGNVAVTVSGHTCQHWSAQTPHTHNRTPENFPCKNLDENYCRNPDGKRAPWCHTTNSQVRWEYCKIPSCDSSPVSTEQLAPTAPPELTPVVQDCYHGDGQSYRGTSSTTTTGKKCQSWSSMTPHRHQKTPENYPNAGLTMNYCRNPDADKGPWCFTTDPSVRWEYCNLKKCSGTEASVVAPPPVVLLPDVETPSEEDCMFGNGK
modifications: radioiodinated (iodinated with Iodobeads) in the binding assay
notes: also called AAPF; anti-angiogenesis plasmin fragment
The molecule B1 showed a dissociation constant Kd in assay [5] of 1000 nM.
